B1: MOCT (mutant octamer) (dsDNA)
DNA 1: AGAGTAATTGATGGGCATTTTAATGG
DNA 2: CCATTAAAATGCCCATCAATTACTCT
B2: MIS (mutant D box) (dsDNA)
DNA 1: ATCTCAAAATATGGGTCTGATTGGCCA
DNA 2: TGGCCAATCAGACCCATATTTTGAGAT

Target: HMG I/Y (recombinant HMG I) (UniProt P17096 1-107)
Test: EMSA

HMG I/Y (recombinant HMG I), sequence (P17096 whole entry): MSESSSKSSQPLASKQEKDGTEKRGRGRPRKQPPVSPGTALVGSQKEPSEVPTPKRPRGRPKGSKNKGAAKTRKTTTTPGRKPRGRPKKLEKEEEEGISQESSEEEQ

Binder | binding result
B1 | no binding
B2 | no binding

— paper PMC2192141
